Assay results: US20120258099A1

Molecular target: RhoA in NIH3T3 cells (UniProt Q9QUI0)
Assay: cell-based or functional assay

Sequence of RhoA in NIH3T3 cells (Q9QUI0 1-190 limits assumed): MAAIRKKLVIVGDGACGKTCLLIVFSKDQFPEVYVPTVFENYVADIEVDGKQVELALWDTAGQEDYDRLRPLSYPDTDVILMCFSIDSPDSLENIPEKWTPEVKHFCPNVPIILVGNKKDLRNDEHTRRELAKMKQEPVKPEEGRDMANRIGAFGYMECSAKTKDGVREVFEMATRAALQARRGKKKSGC

GFP-Tgat (from UniProt P42212 1-238; O75962 1862-2101) (enzyme)
RhoA activation in intact cells, pull-down of RhoA-GTP with GST-RBD (fold over control): 8
